What was measured:
[1] = system: T1, O=C(O)[C@@H](O)c1ccccc1; experiment: purified protein; type: biochemical, Stutzerimonas stutzeri; conditions: 0.0625 mM DCIP as electron acceptor, 50 mM Tris-HCl pH 7.5, 30 °C
T1 construct: membrane flavoprotein; wild-type prepared as in earlier report

[2] = system: T2, C[C@H](O)C(=O)O; experiment: purified protein; type: biochemical, Stutzerimonas stutzeri; conditions: 0.0625 mM DCIP as electron acceptor, 50 mM Tris-HCl pH 7.5, 30 °C
T2 construct: membrane flavoprotein; wild-type prepared as in earlier report

[3] = target: T3, L-iLDH (NAD-independent L-lactate dehydrogenase) (Stutzerimonas stutzeri, UniProt I1SLB1, V108A); experiment: DCIP reduction at […] nm, double-reciprocal plots; type: biochemical; conditions: competitive versus L-mandelate; 0.0625 mM DCIP, 50 mM Tris-HCl pH 7.5, 30 °C
T3 construct: gene lldD; membrane flavoprotein; wild-type prepared as in earlier report
T3 sequence (I1SLB1 1-391 V108A): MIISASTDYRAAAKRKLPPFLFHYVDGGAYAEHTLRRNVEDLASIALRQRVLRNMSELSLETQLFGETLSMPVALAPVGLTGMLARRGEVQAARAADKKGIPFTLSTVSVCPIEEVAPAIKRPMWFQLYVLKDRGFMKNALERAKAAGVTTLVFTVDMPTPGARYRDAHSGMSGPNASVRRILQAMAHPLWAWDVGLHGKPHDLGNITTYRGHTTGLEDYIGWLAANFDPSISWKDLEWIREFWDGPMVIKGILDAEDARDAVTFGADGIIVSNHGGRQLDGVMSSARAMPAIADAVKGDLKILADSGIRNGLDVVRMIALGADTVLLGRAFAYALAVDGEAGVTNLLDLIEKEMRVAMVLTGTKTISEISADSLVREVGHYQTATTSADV

[4] = substrate: C[C@H](O)C(=O)O; experiment: purified protein; type: biochemical, Stutzerimonas stutzeri; conditions: 0.0625 mM DCIP as electron acceptor, 50 mM Tris-HCl pH 7.5, 30 °C
[5] = substrate: O=C(O)[C@@H](O)c1ccccc1; experiment: purified protein; type: biochemical, Stutzerimonas stutzeri; conditions: 0.0625 mM DCIP as electron acceptor, 50 mM Tris-HCl pH 7.5, 30 °C

## L-iLDH (NAD-independent L-lactate dehydrogenase) (Stutzerimonas stutzeri; V108A)
[1]
  Km: 1600 ± 100 µM
  kcat: 97 ± 13 s⁻¹
  kcat/Km: 61000 M⁻¹ s⁻¹
[2]
  Km: 800 ± 100 µM
  kcat: 185 ± 36 s⁻¹
  kcat/Km: 231000 M⁻¹ s⁻¹

## O=C(O)[C@H](O)c1ccccc1 [D-mandelate]
[3]
  Ki: 5.5 ± 0.5 mM

B1: L-iLDH (NAD-independent L-lactate dehydrogenase) (Stutzerimonas stutzeri) (protein)
chain: MIISASTDYRAAAKRKLPPFLFHYVDGGAYAEHTLRRNVEDLASIALRQRVLRNMSELSLETQLFGETLSMPVALAPVGLTGMLARRGEVQAARAADKKGIPFTLSTVSVCPIEEVAPAIKRPMWFQLYVLKDRGFMKNALERAKAAGVTTLVFTVDMPTPGARYRDAHSGMSGPNASVRRILQAMAHPLWAWDVGLHGKPHDLGNITTYRGHTTGLEDYIGWLAANFDPSISWKDLEWIREFWDGPMVIKGILDAEDARDAVTFGADGIIVSNHGGRQLDGVMSSARAMPAIADAVKGDLKILADSGIRNGLDVVRMIALGADTVLLGRAFAYALAVDGEAGVTNLLDLIEKEMRVAMVLTGTKTISEISADSLVREVGHYQTATTSADV
notes: membrane flavoprotein; wild-type prepared as in earlier report
[4]
  Km: 180 ± 10 µM
  kcat: 445 ± 44 s⁻¹
  kcat/Km: 2.47e+06 M⁻¹ s⁻¹
[5]
  Km: 6800 ± 1000 µM
  kcat: 8.3 ± 1.3 s⁻¹
  kcat/Km: 1200 M⁻¹ s⁻¹
